The target of the test is biotinylated yeast L3Δ21 peptide (S. cerevisiae) (UniProt P14126). Description: SPR; Biacore 3000; biotinylated L3Δ21 peptide on an SA sensor chip (Fc2), PAP as analyte at 103, 94, 75 and 45 pM; 25 °C; HBS-EP (0.1 M HEPES pH 7.4, 0.15 M NaCl, 3 mM EDTA, 0.005% polysorbate 20); 1:1 Langmuir fit. A general note: Surface plasmon resonance follows binding to a sensor surface in real time, without labels.
Chain of UniProt P14126 (P14126 1-21, stated change not applied): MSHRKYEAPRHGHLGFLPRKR

By Kd is commonly meant the concentration at which binding is half-saturated. Low values mean tighter binding, high ones weaker binding. Usually koff stands for a measure of how fast the partners let go of each other. As usually defined, the kon is a measure of how fast the partners come together. Low values mean slow association, high ones fast association. “His-tagged pokeweed antiviral protein (PAP), recombinant (enzyme)”: the Kd was 24.8 nM, the koff was found to be 4.6e-05 s⁻¹ and the kon came out at 1860 M⁻¹ s⁻¹.

(Values after PMC4014737.)
